System: 3-methylcrotonic acid
Type: biochemical, Yersinia frederiksenii
Set-up: key: “+” representing a low increase in activity; “++++” representing a high increase in activity

Row | Molecule | Activity relative to WT
1 | I283T-N285P-N287T-Q290E-S322T-N388M-K394R-C430A-L432F-L434W-S436N-i443aV-dG462 (protein) MFLKSLREQINLLKRQGDLRIINRPVDSYLEAAAIIRRSTETKAPVPLMTNIKGYPGCSIVGGLAALSSNPEYPLSRVAMSLGLSTTASAQSIVQYLIDGLKKTPYLPVEIDSNSAPCKQNILRGEDASLAHFPIPQVHQHDGNRYVNTWGVFIVESPDGQWCNWSIQRVQYLNDRQMIALVFPSQHISDIWEEWVKIGKPMPYALVQGCEPIVPYIAGLPLLERNVNEAEYIGALYGKGIEVVKCETHDLRVPASSEVVIEGYFAITREGVEGPFGEFAGYTPPETSLEPILSITAISWQDDPIWPVVAEGKPVDEYHTCTGIGDAAAIQNVLLTANLPVSFVWVPLYSACHLMIVSINRHWRQTHPDLTSEQLTKKVGDVIHQTRMSIKLPRIVVLDDDVDPADTESLLWALATRIHPERKRYFYESAIFPWLNCYSEEERHNRKGKRVIIDALLPENHGAISSFDYAYPDDIKQRVLMHWETDFSHD | ++++
2 | I283T-N285P-N287T-Q290E-S322T-N388M-K394R-C430A-L432F-L434W-S436N-i444aR-dG462 (protein) MFLKSLREQINLLKRQGDLRIINRPVDSYLEAAAIIRRSTETKAPVPLMTNIKGYPGCSIVGGLAALSSNPEYPLSRVAMSLGLSTTASAQSIVQYLIDGLKKTPYLPVEIDSNSAPCKQNILRGEDASLAHFPIPQVHQHDGNRYVNTWGVFIVESPDGQWCNWSIQRVQYLNDRQMIALVFPSQHISDIWEEWVKIGKPMPYALVQGCEPIVPYIAGLPLLERNVNEAEYIGALYGKGIEVVKCETHDLRVPASSEVVIEGYFAITREGVEGPFGEFAGYTPPETSLEPILSITAISWQDDPIWPVVAEGKPVDEYHTCTGIGDAAAIQNVLLTANLPVSFVWVPLYSACHLMIVSINRHWRQTHPDLTSEQLTKKVGDVIHQTRMSIKLPRIVVLDDDVDPADTESLLWALATRIHPERKRYFYESAIFPWLNCYSEEERHNRKGKRVIIDALLPENHGAISSFDYAYPDDIKQRVLMHWETDFSHD | ++++
3 | I283T-N285P-N287T-Q290E-S322T-N388M-K394R-C430A-L432F-L434W-S436N-i444aH-dG462 (protein) MFLKSLREQINLLKRQGDLRIINRPVDSYLEAAAIIRRSTETKAPVPLMTNIKGYPGCSIVGGLAALSSNPEYPLSRVAMSLGLSTTASAQSIVQYLIDGLKKTPYLPVEIDSNSAPCKQNILRGEDASLAHFPIPQVHQHDGNRYVNTWGVFIVESPDGQWCNWSIQRVQYLNDRQMIALVFPSQHISDIWEEWVKIGKPMPYALVQGCEPIVPYIAGLPLLERNVNEAEYIGALYGKGIEVVKCETHDLRVPASSEVVIEGYFAITREGVEGPFGEFAGYTPPETSLEPILSITAISWQDDPIWPVVAEGKPVDEYHTCTGIGDAAAIQNVLLTANLPVSFVWVPLYSACHLMIVSINRHWRQTHPDLTSEQLTKKVGDVIHQTRMSIKLPRIVVLDDDVDPADTESLLWALATRIHPERKRYFYESAIFPWLNCYSEEERHNRKGKRVIIDALLPENHGAISSFDYAYPDDIKQRVLMHWETDFSHD | ++++
4 | I283T-N285P-N287T-Q290E-S322T-N388M-K394R-C430A-L432F-L434W-S436N-i444aV-dG462 (protein) MFLKSLREQINLLKRQGDLRIINRPVDSYLEAAAIIRRSTETKAPVPLMTNIKGYPGCSIVGGLAALSSNPEYPLSRVAMSLGLSTTASAQSIVQYLIDGLKKTPYLPVEIDSNSAPCKQNILRGEDASLAHFPIPQVHQHDGNRYVNTWGVFIVESPDGQWCNWSIQRVQYLNDRQMIALVFPSQHISDIWEEWVKIGKPMPYALVQGCEPIVPYIAGLPLLERNVNEAEYIGALYGKGIEVVKCETHDLRVPASSEVVIEGYFAITREGVEGPFGEFAGYTPPETSLEPILSITAISWQDDPIWPVVAEGKPVDEYHTCTGIGDAAAIQNVLLTANLPVSFVWVPLYSACHLMIVSINRHWRQTHPDLTSEQLTKKVGDVIHQTRMSIKLPRIVVLDDDVDPADTESLLWALATRIHPERKRYFYESAIFPWLNCYSEEERHNRKGKRVIIDALLPENHGAISSFDYAYPDDIKQRVLMHWETDFSHD | ++++
5 | I283T-N285P-N287T-Q290E-S322T-N388M-K394R-C430A-L432F-L434W-S436N-i443aL-dG462 (protein) MFLKSLREQINLLKRQGDLRIINRPVDSYLEAAAIIRRSTETKAPVPLMTNIKGYPGCSIVGGLAALSSNPEYPLSRVAMSLGLSTTASAQSIVQYLIDGLKKTPYLPVEIDSNSAPCKQNILRGEDASLAHFPIPQVHQHDGNRYVNTWGVFIVESPDGQWCNWSIQRVQYLNDRQMIALVFPSQHISDIWEEWVKIGKPMPYALVQGCEPIVPYIAGLPLLERNVNEAEYIGALYGKGIEVVKCETHDLRVPASSEVVIEGYFAITREGVEGPFGEFAGYTPPETSLEPILSITAISWQDDPIWPVVAEGKPVDEYHTCTGIGDAAAIQNVLLTANLPVSFVWVPLYSACHLMIVSINRHWRQTHPDLTSEQLTKKVGDVIHQTRMSIKLPRIVVLDDDVDPADTESLLWALATRIHPERKRYFYESAIFPWLNCYSEEERHNRKGKRVIIDALLPENHGAISSFDYAYPDDIKQRVLMHWETDFSHD | ++++
6 | V382A-N388M-K394R-C430N-L432F-L434W-S436N (protein) MFLKSLREQINLLKRQGDLRIINRPVDSYLEAAAIIRRSTETKAPVPLMTNIKGYPGCSIVGGLAALSSNPEYPLSRVAMSLGLSTTASAQSIVQYLIDGLKKTPYLPVEIDSNSAPCKQNILRGEDASLAHFPIPQVHQHDGNRYVNTWGVFIVESPDGQWCNWSIQRVQYLNDRQMIALVFPSQHISDIWEEWVKIGKPMPYALVQGCEPIVPYIAGLPLLERNVNEAEYIGALYGKGIEVVKCETHDLRVPASSEVVIEGYFAITREGVEGPFGEFAGYIPNENSLQPILSITAISWQDDPIWPVVAEGKPVDEYHTCSGIGDAAAIQNVLLTANLPVSFVWVPLYSACHLMIVSINRHWRQTHPDLTSEQLTKKVGDAIHQTRMSIKLPRIVVLDDDVDPADTESLLWALATRIHPERKRYFYESNIFPWLNCYSEEERHNRKGKRVIIDALLPENHGAISSFDYAYPDDIKQRVLMHWETDFSHD | +
7 | I283T-N285P-N287T-Q290E-S322T-N388M-K394R-C430A-L432F-L434W-S436N-i444aN-dG462 (protein) MFLKSLREQINLLKRQGDLRIINRPVDSYLEAAAIIRRSTETKAPVPLMTNIKGYPGCSIVGGLAALSSNPEYPLSRVAMSLGLSTTASAQSIVQYLIDGLKKTPYLPVEIDSNSAPCKQNILRGEDASLAHFPIPQVHQHDGNRYVNTWGVFIVESPDGQWCNWSIQRVQYLNDRQMIALVFPSQHISDIWEEWVKIGKPMPYALVQGCEPIVPYIAGLPLLERNVNEAEYIGALYGKGIEVVKCETHDLRVPASSEVVIEGYFAITREGVEGPFGEFAGYTPPETSLEPILSITAISWQDDPIWPVVAEGKPVDEYHTCTGIGDAAAIQNVLLTANLPVSFVWVPLYSACHLMIVSINRHWRQTHPDLTSEQLTKKVGDVIHQTRMSIKLPRIVVLDDDVDPADTESLLWALATRIHPERKRYFYESAIFPWLNCYSEEERHNRKGKRVIIDALLPENHGAISSFDYAYPDDIKQRVLMHWETDFSHD | ++++
8 | I283T-N285P-N287T-Q290E-S322T-N388M-K394R-C430A-L432F-L434W-S436N-i443aT-dG462 (protein) MFLKSLREQINLLKRQGDLRIINRPVDSYLEAAAIIRRSTETKAPVPLMTNIKGYPGCSIVGGLAALSSNPEYPLSRVAMSLGLSTTASAQSIVQYLIDGLKKTPYLPVEIDSNSAPCKQNILRGEDASLAHFPIPQVHQHDGNRYVNTWGVFIVESPDGQWCNWSIQRVQYLNDRQMIALVFPSQHISDIWEEWVKIGKPMPYALVQGCEPIVPYIAGLPLLERNVNEAEYIGALYGKGIEVVKCETHDLRVPASSEVVIEGYFAITREGVEGPFGEFAGYTPPETSLEPILSITAISWQDDPIWPVVAEGKPVDEYHTCTGIGDAAAIQNVLLTANLPVSFVWVPLYSACHLMIVSINRHWRQTHPDLTSEQLTKKVGDVIHQTRMSIKLPRIVVLDDDVDPADTESLLWALATRIHPERKRYFYESAIFPWLNCYSEEERHNRKGKRVIIDALLPENHGAISSFDYAYPDDIKQRVLMHWETDFSHD | ++++
9 | I283T-N285P-N287T-Q290E-S322T-N388M-K394R-C430A-L432F-L434W-S436N-i444aP-dG462 (protein) MFLKSLREQINLLKRQGDLRIINRPVDSYLEAAAIIRRSTETKAPVPLMTNIKGYPGCSIVGGLAALSSNPEYPLSRVAMSLGLSTTASAQSIVQYLIDGLKKTPYLPVEIDSNSAPCKQNILRGEDASLAHFPIPQVHQHDGNRYVNTWGVFIVESPDGQWCNWSIQRVQYLNDRQMIALVFPSQHISDIWEEWVKIGKPMPYALVQGCEPIVPYIAGLPLLERNVNEAEYIGALYGKGIEVVKCETHDLRVPASSEVVIEGYFAITREGVEGPFGEFAGYTPPETSLEPILSITAISWQDDPIWPVVAEGKPVDEYHTCTGIGDAAAIQNVLLTANLPVSFVWVPLYSACHLMIVSINRHWRQTHPDLTSEQLTKKVGDVIHQTRMSIKLPRIVVLDDDVDPADTESLLWALATRIHPERKRYFYESAIFPWLNCYSEEERHNRKGKRVIIDALLPENHGAISSFDYAYPDDIKQRVLMHWETDFSHD | ++++
10 | I283T-N285P-N287T-Q290E-S322T-N388M-K394R-C430A-L432F-L434W-S436N-i444aG-dG462 (protein) MFLKSLREQINLLKRQGDLRIINRPVDSYLEAAAIIRRSTETKAPVPLMTNIKGYPGCSIVGGLAALSSNPEYPLSRVAMSLGLSTTASAQSIVQYLIDGLKKTPYLPVEIDSNSAPCKQNILRGEDASLAHFPIPQVHQHDGNRYVNTWGVFIVESPDGQWCNWSIQRVQYLNDRQMIALVFPSQHISDIWEEWVKIGKPMPYALVQGCEPIVPYIAGLPLLERNVNEAEYIGALYGKGIEVVKCETHDLRVPASSEVVIEGYFAITREGVEGPFGEFAGYTPPETSLEPILSITAISWQDDPIWPVVAEGKPVDEYHTCTGIGDAAAIQNVLLTANLPVSFVWVPLYSACHLMIVSINRHWRQTHPDLTSEQLTKKVGDVIHQTRMSIKLPRIVVLDDDVDPADTESLLWALATRIHPERKRYFYESAIFPWLNCYSEEERHNRKGKRVIIDALLPENHGAISSFDYAYPDDIKQRVLMHWETDFSHD | ++++

Reference: patent US20250327097A1, “ORGANISMS PRODUCING LESS CROTONIC ACID” (Global Bioenergies, priority 2021, published 2025)
